In one data set the test system is biotinyl-Trp-oxazolone. The data set can be described thus: self-aminoacylation, catalytic enhancement (BWO) (fold over background); higher = more active; k-Seq, kA / k0A0; sequences stand for … in GGGAAUGGAUCCACAUCUACGAAUUC…UUCACUGCAGACUUGACGAAGCUG
In a few lines:
(§1)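 Mutagenized RNA pools with a 21-nt variable region (0.43 μM) reacted with each biotinyl-aminoacyl-oxazolone at 2–1250 μM. Reactions ran in 50 μL HEPES/NaCl/KCl/MgCl2/CaCl2 buffer with 5% acetonitrile, pH 6.9–7.0, for 90 minutes at room temperature. Streptavidin-captured RNA was quantified by triplicate qPCR and Illumina sequencing, and per-sequence fraction reacted was fit to a pseudo-first-order model with 1000 bootstraps. Catalytic enhancement is median kA divided by the uncatalyzed rate, the low-activity peak of a bimodal Gaussian fit.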

The subject of the next data set is biotinyl-Leu-oxazolone. The data set can be described thus: self-aminoacylation, catalytic enhancement (BLO) (fold over background); higher = more active; k-Seq, kA / k0A0; sequences stand for … in GGGAAUGGAUCCACAUCUACGAAUUC…UUCACUGCAGACUUGACGAAGCUG
The method in brief:
as §1

The subject of another data set is biotinyl-Val-oxazolone. The data set can be described thus: self-aminoacylation, catalytic enhancement (BVO) (fold over background); higher = more active; k-Seq, kA / k0A0; sequences stand for … in GGGAAUGGAUCCACAUCUACGAAUUC…UUCACUGCAGACUUGACGAAGCUG
The method in brief: as §1

In the next data set the test system is biotinyl-Ile-oxazolone. The experiment in a line: self-aminoacylation, catalytic enhancement (BIO) (fold over background); higher = more active; k-Seq, kA / k0A0; sequences stand for … in GGGAAUGGAUCCACAUCUACGAAUUC…UUCACUGCAGACUUGACGAAGCUG
In a few lines: as §1

The subject of the next data set is biotinyl-Met-oxazolone. The experiment in a line: self-aminoacylation, catalytic enhancement (BMO) (fold over background); higher = more active; k-Seq, kA / k0A0; sequences stand for … in GGGAAUGGAUCCACAUCUACGAAUUC…UUCACUGCAGACUUGACGAAGCUG
The method in brief: as §1

The next data set relates to biotinyl-Phe-oxazolone. The data set can be described thus: self-aminoacylation, catalytic enhancement (BFO) (fold over background); higher = more active; k-Seq, kA / k0A0; sequences stand for … in GGGAAUGGAUCCACAUCUACGAAUUC…UUCACUGCAGACUUGACGAAGCUG
In a few lines:
as §1

Variants at the floor of the assay were thinned out.

Take “AGUCACCUAGGUCAUCGCGUG [Fam2.2 aminoacylation ribozyme variant]”: the self-aminoacylation with biotinyl-Trp-oxazolone stood at 14.3; with biotinyl-Leu-oxazolone, 18.3; in the data set with biotinyl-Val-oxazolone, 9.1; with biotinyl-Ile-oxazolone, 8.4; in the data set on biotinyl-Met-oxazolone, 14.4; in the data set with biotinyl-Phe-oxazolone, 97.

“AGUCACCUAGGUCAUCGGAUG [Fam2.2 aminoacylation ribozyme variant]”: the self-aminoacylation stood at 0.786 with biotinyl-Trp-oxazolone; 1.18 in the data set on biotinyl-Leu-oxazolone; 1.04 in the data set with biotinyl-Val-oxazolone; 1.2 with biotinyl-Ile-oxazolone; 1.21 in the data set on biotinyl-Met-oxazolone; 1.24 with biotinyl-Phe-oxazolone.

Turning to “AGUCACCUAGGUCAUCGGCUG [Fam2.2 aminoacylation ribozyme variant]”, the self-aminoacylation was found to be 3 with biotinyl-Trp-oxazolone; 2.27 in the data set with biotinyl-Leu-oxazolone; 2.59 in the data set on biotinyl-Val-oxazolone; 2.5 with biotinyl-Ile-oxazolone; 2.18 in the data set with biotinyl-Met-oxazolone; 18.9 with biotinyl-Phe-oxazolone.

“AGUCACCUAGGUCAUCGGGUA [Fam2.2 aminoacylation ribozyme variant]”: the self-aminoacylation worked out at 9.54 with biotinyl-Trp-oxazolone; 12.7 with biotinyl-Leu-oxazolone; 6.5 in the data set on biotinyl-Val-oxazolone; 6.85 in the data set on biotinyl-Ile-oxazolone; 11.6 in the data set on biotinyl-Met-oxazolone; 60 with biotinyl-Phe-oxazolone.

For the sequence “AGUCACCUAGGUUAUCGGGUG [Fam2.2 aminoacylation ribozyme variant]”, the self-aminoacylation in the data set on biotinyl-Trp-oxazolone is 6.62; with biotinyl-Leu-oxazolone it was 4.68; in the data set with biotinyl-Val-oxazolone, 4.56; with biotinyl-Ile-oxazolone, 4.39; in the data set with biotinyl-Met-oxazolone it was 4.56; with biotinyl-Phe-oxazolone, 32.2.

On to “AGUCACCUUGGUCAUCGGGUG [Fam2.2 aminoacylation ribozyme variant]”, for which the self-aminoacylation stood at 5.71 with biotinyl-Trp-oxazolone; 6.96 with biotinyl-Leu-oxazolone; 4.85 in the data set on biotinyl-Val-oxazolone; 4.89 in the data set on biotinyl-Ile-oxazolone; 5.4 with biotinyl-Met-oxazolone; 49.8 in the data set with biotinyl-Phe-oxazolone.

On to “AGUCACGUAGGUCAUCGGGUG [Fam2.2 aminoacylation ribozyme variant]”, for which the self-aminoacylation with biotinyl-Trp-oxazolone amounted to 6.71; with biotinyl-Leu-oxazolone, 5.72; in the data set on biotinyl-Val-oxazolone it was 5.07; with biotinyl-Ile-oxazolone it was 3.96; in the data set on biotinyl-Met-oxazolone it was 5.11; in the data set with biotinyl-Phe-oxazolone, 52.9.

Consider “AGUGCCCUGGUCAUCGAGUGA [Fam2.1 aminoacylation ribozyme variant]”, for which the self-aminoacylation with biotinyl-Trp-oxazolone is 13.6; in the data set on biotinyl-Leu-oxazolone it was 14.5; in the data set with biotinyl-Val-oxazolone, 5.79; in the data set with biotinyl-Ile-oxazolone it was 6.36; in the data set on biotinyl-Met-oxazolone, 12.5; in the data set with biotinyl-Phe-oxazolone it was 67.6.

“AUAACCAUGGUCAUCGAGUGA [Fam2.1 aminoacylation ribozyme variant]”: the self-aminoacylation with biotinyl-Trp-oxazolone amounted to 8.43; in the data set with biotinyl-Leu-oxazolone it was 7.68; with biotinyl-Val-oxazolone it was 3.7; with biotinyl-Ile-oxazolone it was 3.91; with biotinyl-Met-oxazolone, 7.91; with biotinyl-Phe-oxazolone, 23.8.

With “AUAACCCUAGUCAUCGAGUGA [Fam2.1 aminoacylation ribozyme variant]”, the self-aminoacylation amounted to 6.64 with biotinyl-Trp-oxazolone; 5.25 in the data set on biotinyl-Leu-oxazolone; 2.97 in the data set with biotinyl-Val-oxazolone; 2.68 in the data set with biotinyl-Ile-oxazolone; 5.44 with biotinyl-Met-oxazolone; 5.43 with biotinyl-Phe-oxazolone.

Turning to “AUAACCCUGGACAUCGAGUGA [Fam2.1 aminoacylation ribozyme variant]”, the self-aminoacylation amounted to 5.65 with biotinyl-Trp-oxazolone; 6.63 in the data set with biotinyl-Leu-oxazolone; 2.47 with biotinyl-Val-oxazolone; 3.02 in the data set with biotinyl-Ile-oxazolone; 6.69 in the data set with biotinyl-Met-oxazolone; 28.8 with biotinyl-Phe-oxazolone.

On to “AUAACCCUGGUAAUCGAGUGA [Fam2.1 aminoacylation ribozyme variant]”, for which the self-aminoacylation with biotinyl-Trp-oxazolone stood at 9.38; with biotinyl-Leu-oxazolone, 8.57; with biotinyl-Val-oxazolone it was 3.58; in the data set with biotinyl-Ile-oxazolone, 3.97; with biotinyl-Met-oxazolone it was 7.93; with biotinyl-Phe-oxazolone it was 42.6.

For “AUAACCCUGGUCAUAGAGUGA [Fam2.1 aminoacylation ribozyme variant]”, the self-aminoacylation was 9.78 in the data set on biotinyl-Trp-oxazolone; 8.65 in the data set with biotinyl-Leu-oxazolone; 3.61 with biotinyl-Val-oxazolone; 3.62 in the data set on biotinyl-Ile-oxazolone; 8.34 in the data set on biotinyl-Met-oxazolone; 49 in the data set on biotinyl-Phe-oxazolone.

With “AUAACCCUGGUCAUCCAGUGA [Fam2.1 aminoacylation ribozyme variant]”, the self-aminoacylation in the data set on biotinyl-Trp-oxazolone is 6.17; with biotinyl-Leu-oxazolone it was 6.28; with biotinyl-Val-oxazolone it was 3.21; in the data set with biotinyl-Ile-oxazolone, 3.62; in the data set with biotinyl-Met-oxazolone, 5.52; with biotinyl-Phe-oxazolone it was 22.8.

As to “AUAACCCUGGUCAUCGAAUGA [Fam2.1 aminoacylation ribozyme variant]”, the self-aminoacylation in the data set on biotinyl-Trp-oxazolone turned out to be 0.785; in the data set with biotinyl-Leu-oxazolone it was 0.798; in the data set with biotinyl-Val-oxazolone, 0.954; in the data set with biotinyl-Ile-oxazolone, 0.882; in the data set on biotinyl-Met-oxazolone, 1.07; in the data set with biotinyl-Phe-oxazolone, 0.579.

With “AUAACCCUGGUCAUCGAGCGA [Fam2.1 aminoacylation ribozyme variant]”, the self-aminoacylation with biotinyl-Trp-oxazolone is 1.52; in the data set with biotinyl-Leu-oxazolone, 2.88; in the data set on biotinyl-Val-oxazolone, 1.59; with biotinyl-Ile-oxazolone, 1.62; in the data set on biotinyl-Met-oxazolone it was 1.58; with biotinyl-Phe-oxazolone it was 1.91.

Consider “AUAACCCUGGUCAUCGAUUGA [Fam2.1 aminoacylation ribozyme variant]”, for which the self-aminoacylation in the data set on biotinyl-Trp-oxazolone worked out at 0.392; with biotinyl-Leu-oxazolone it was 1.02; in the data set on biotinyl-Val-oxazolone, 0.974; with biotinyl-Ile-oxazolone, 0.94; with biotinyl-Met-oxazolone, 0.883; in the data set with biotinyl-Phe-oxazolone, 0.646.

As for “AUAACCCUGGUCAUCUAGUGA [Fam2.1 aminoacylation ribozyme variant]”, the self-aminoacylation came to 10.1 with biotinyl-Trp-oxazolone; 9.2 with biotinyl-Leu-oxazolone; 4.77 with biotinyl-Val-oxazolone; 4.52 in the data set on biotinyl-Ile-oxazolone; 8.88 in the data set on biotinyl-Met-oxazolone; 45.7 with biotinyl-Phe-oxazolone.

With “AUAACCCUUGUCAUCGAGUGA [Fam2.1 aminoacylation ribozyme variant]”, the self-aminoacylation with biotinyl-Trp-oxazolone was found to be 7.89; in the data set with biotinyl-Leu-oxazolone, 6.26; in the data set with biotinyl-Val-oxazolone, 3.13; with biotinyl-Ile-oxazolone, 3.29; with biotinyl-Met-oxazolone, 6.3; in the data set on biotinyl-Phe-oxazolone it was 21.5.

In the case of “AUACACCUACGUCAUCGGGUG [Fam2.2 aminoacylation ribozyme variant]”, the self-aminoacylation stood at 3.83 in the data set with biotinyl-Trp-oxazolone; 5.2 in the data set with biotinyl-Leu-oxazolone; 2.49 in the data set on biotinyl-Val-oxazolone; 3.12 in the data set with biotinyl-Ile-oxazolone; 4.6 with biotinyl-Met-oxazolone; 31.8 in the data set on biotinyl-Phe-oxazolone.

For the sequence “AUACACCUAGGGCAUCGGGUG [Fam2.2 aminoacylation ribozyme variant]”, the self-aminoacylation came to 4.14 with biotinyl-Trp-oxazolone; 3.71 with biotinyl-Leu-oxazolone; 2.43 in the data set with biotinyl-Val-oxazolone; 2.99 with biotinyl-Ile-oxazolone; 2.83 in the data set on biotinyl-Met-oxazolone; 17.1 with biotinyl-Phe-oxazolone.

The values above are taken from the supplement of paper PMC9233669.
